The values that follow are results of earlier work, collected in publication PMC4134560.

For the data set, the target named is p53 (Homo sapiens) (UniProt P04637). Particulars: cited from earlier work.

A value given as a limit tells only on which side of the number the result lay.

In general, Kd refers to the constant that tells how readily two partners part at equilibrium. p53 (from UniProt P04637): the dissociation constant (Kd) was < 1000 nM.
